Drawing on patent publication US20090293142A1, this text covers invertase activity in mixed-extract assay, percent of the added value of the extracts incubated separately (5 mM sucrose, pH 4.5), invertase activity in mixed-extract assay, percent of the added value (1 mM sucrose; concentrated cell wall fraction of transgenic leaves) and invertase activity in mixed-extract assay, percent of the added value (5 mM sucrose; concentrated cell wall fraction of infiltrated transgenic leaves) for three substances.

For experiment [1], the target named is invertase activity in the soluble fraction of a leaf extract of a wild type plant. In words: cell-based or functional assay.
In experiment [2] the target is invertase activity in the cell wall fraction of wild type tobacco leaves. In words: cell-based or functional assay.

For “Arabidopsis thaliana cell wall invertase inhibitor AtC/VIF2 (At5g46940)”, the invertase activity in mixed-extract assay, percent of the added value of the extracts incubated separately (5 mM sucrose, pH 4.5) in experiment [1] was 86%.
Substance “Arabidopsis thaliana vacuolar invertase inhibitor AtC/VIF1 (At1g47960) (from UniProt F4HWQ8 24-205)” displayed an invertase activity in mixed-extract assay, percent of the added value of the extracts incubated separately (5 mM sucrose, pH 4.5) in experiment [1] of 79%.
In experiment [2], “tobacco apoplasmic invertase inhibitor (Greiner et al., 1998)” gave an invertase activity in mixed-extract assay, percent of the added value (1 mM sucrose; concentrated cell wall fraction of transgenic leaves) of 58% and an invertase activity in mixed-extract assay, percent of the added value (5 mM sucrose; concentrated cell wall fraction of infiltrated transgenic leaves) of 70%.
